Data: patent US20240228543

B1: human SAGA deubiquitinating module (USP22/ATXN7L3/ENY2/ATXN7), construct lacking the Avi tag, 6xHis tag cleaved (protein)
chain 1: MVSRPEPEGEAMDAELAVAPPGCSHLGSFKVDNWKQNLRAIYQCFVWSGTAEARKRKAKSCICHVCGVHLNRLHSCLYCVFFGCFTKKHIHEHAKAKRHNLAIDLMYGGIYCFLCQDYIYDKDMEIIAKEEQRKAWKMQGVGEKFSTWEPTKRELELLKHNPKRRKITSNCTIGLRGLINLGNTCFMNCIVQALTHTPLLRDFFLSDRHRCEMQSPSSCLVCEMSSLFQEFYSGHRSPHIPYKLLHLVWTHARHLAGYEQQDAHEFLIAALDVLHRHCKGDDNGKKANNPNHCNCIIDQIFTGGLQSDVTCQVCHGVSTTIDPFWDISLDLPGSSTPFWPLSPGSEGNVVNGESHVSGTTTLTDCLRRFTRPEHLGSSAKIKCSGCHSYQESTKQLTMKKLPIVACFHLKRFEHSAKLRRKITTYVSFPLELDMTPFMASSKESRMNGQYQQPTDSLNNDNKYSLFAVVNHQGTLESGHYTSFIRQHKDQWFKCDDAIITKASIKDVLDSEGYLLFYHKQFLEYE
chain 2: ERAADDVRGEPRRAAAAAGGAAAAAARQQQQQQQQQQPPPPQPQRQQHPPPPPRRTRPEDGGPGAASTSAAAMATVGERRPLPSPEVMLGQSWNLWVEASKLPGKDGTELDESFKEFGKNREVMGLCREDMPIFGFCPAHDDFYLVVCN
chain 3: MKMEEMSLSGLDNSKLEAIAQEIYADLVEDSCLGFCFEVHRAVKCGYFFLDDTDPDSMKDFEIVDQPGLDIFGQVFNQWKSKECVCPNCSRSIAASRFAPHLEKCLGMGRNSSRIANRRIANSNNMNKSESDQEDNDDINDNDWSYGSEKKAKKRKSDKNPNSPRRSKSLKHKNGELSNSDPFKYNNSTGISYETLGPEELRSLLTTQCGVISEHTKKMCTRSLRCPQHTDEQRRTVRIYFLGPSAVLPEVESSLDNDSFDMTDSQALISRLQWDGSSDLSPSDSGSSKTSENQGWGLGTNSSESRKTKKKKSHLSLVGTASGLGSNKKKKPKPPAPPTPSIYDDIN
chain 4: MVVSKMNKDAQMRAAINQKLIETGERERLKELLRAKLIECGWKDQLKAHCKEVIKEKGLEHVTVDDLVAEITPKGRALVPDSVKKELLQRIRTFLAQHASL
- Ub-AMC cleavage with 1 µM hD1 (hD1 cyclic peptide): the USP22/DUB module has no detectable activity under these conditions
- cleavage of nucleosomal H2B-Ub (200 nM hDUBm, 1 µM peptide) (hD1 cyclic peptide): With the exception of hD4, all of the cyclic peptide leads were potent inhibitors of nucleosomal H2B-Ub cleavage by the human DUB module
- cleavage of nucleosomal H2B-Ub (200 nM hDUBm, 1 µM peptide) (hD2 cyclic peptide): With the exception of hD4, all of the cyclic peptide leads were potent inhibitors of nucleosomal H2B-Ub cleavage by the human DUB module
- cleavage of nucleosomal H2B-Ub (200 nM hDUBm, 1 µM peptide) (hD3 cyclic peptide): With the exception of hD4, all of the cyclic peptide leads were potent inhibitors of nucleosomal H2B-Ub cleavage by the human DUB module
- cleavage of nucleosomal H2B-Ub (200 nM hDUBm, 1 µM peptide) (hD4 cyclic peptide): also showed very weak inhibition of hDUBm on nucleosomal H2B-Ub
- cleavage of nucleosomal H2B-Ub (200 nM hDUBm, 1 µM peptide) (hD5 cyclic peptide): With the exception of hD4, all of the cyclic peptide leads were potent inhibitors of nucleosomal H2B-Ub cleavage by the human DUB module
- cleavage of nucleosomal H2B-Ub (200 nM hDUBm, 1 µM peptide) (hL1 cyclic peptide): With the exception of hD4, all of the cyclic peptide leads were potent inhibitors of nucleosomal H2B-Ub cleavage by the human DUB module
- Ub-AMC cleavage over a range of yD1 concentrations (yD1 cyclic peptide): yD1 also did not inhibit the human DUBm

B2: yeast SAGA DUB module (Ubp8/Sgf11/Sgf73 1-105/Sus1), construct lacking the Avi tag, 6xHis tag cleaved (protein)
chain 1: MSICPHIQQVFQNEKSKDGVLKTCNAARYILNHSVPKEKFLNTMKCGTCHEINSGATFMCLQCGFCGCWNHSHFLSHSKQIGHIFGINSNNGLLFCFKCEDYIGNIDLINDAILAKYWDDVCTKTMVPSMERRDGLSGLINMGSTCFMSSILQCLIHNPYFIRHSMSQIHSNNCKVRSPDKCFSCALDKIVHELYGALNTKQASSSSTSTNRQTGFIYLLTCAWKINQNLAGYSQQDAHEFWQFIINQIHQSYVLDLPNAKEVSRANNKQCECIVHTVFEGSLESSIVCPGCQNNSKTTIDPFLDLSLDIKDKKKLYECLDSFHKKEQLKDFNYHCGECNSTQDAIKQLGIHKLPSVLVLQLKRFEHLLNGSNRKLDDFIEFPTYLNMKNYCSTKEKDKHSENGKVPDIIYELIGIVSHKGTVNEGHYIAFCKISGGQWFKFNDSMVSSISQEEVLKEQAYLLFYTIRQVN
chain 2: MTEETITIDSISNGILNNLLTTLIQDIVARETTQQQLLKTRYPDLRSYYFDPNGSLDINGLQKQQESSQYIHCENCGRDVSANRLAAHLQRCLSRGARR
chain 3: MRSGDAEIKGIKPKVIEEYSLSQGSGPSNDSWKSLMSSAKDTPLQYDHMNRESLKKYFNPNAQLIEDPLDKPIQYRVCEKCGKPLALTAIVDHLENHCAGASGKS
chain 4: MTMDTAQLKSQIQQYLVESGNYELISNELKARLLQEGWVDKVKDLTKSEMNINESTNFTQILSTVEPKALEMVSDSTRETVLKQIREFLEEIVDTQ
- Ub-AMC cleavage (yD1 cyclic peptide): yD1 did not inhibit activity of the yeast DUB module
- Ub-AMC cleavage, 50 nM yeast DUB module with 2.5 µM yD1 (yD1 cyclic peptide): Rather than inhibition, yD1 produced a slight increase in cleavage rates

B3: USP27x alone (DUBprofiler panel) (protein)
chain: MCKDYVYDKDIEQIAKEEQGEALKLQASTSTEVSHQQCSVPGLGEKFPTWETTKPELELLGHNPRRRRITSSFTIGLRGLINLGNTCFMNCIVQALTHTPILRDFFLSDRHRCEMPSPELCLVCEMSSLFRELYSGNPSPHVPYKLLHLVWIHARHLAGYRQQDAHEFLIAALDVLHRHCKGDDVGKAANNPNHCNCIIDQIFTGGLQSDVTCQACHGVSTTIDPCWDISLDLPGSCTSFWPMSPGRESSVNGESHIPGITTLTDCLRRFTRPEHLGSSAKIKCGSCQSYQESTKQLTMNKLPVVACFHFKRFEHSAKQRRKITTYISFPLELDMTPFMASSKESRMNGQLQLPTNSGNNENKYSLFAVVNHQGTLESGHYTSFIRHHKDQWFKCDDAVITKASIKDVLDSEGYLLFYHKQVLEHESEKVKEMNTQAY
- ubiquitin-rhodamine(110)-glycine cleavage with 1 µM hD1 (DUBprofiler) (hD1 cyclic peptide): USP27x, whose activity was reduced by ˜50%

B4: USP7 catalytic domain (protein)
chain: KKHTGYVGLKNQGATCYMNSLLQTLFFTNQLRKAVYMMPTEGDDSSKSVPLALQRVFYELQHSDKPVGTKKLTKSFGWETLDSFMQHDVQELCRVLLDNVENKMKGTCVEGTIPKLFRGKMVSYIQCKEVDYRSDRREDYYDIQLSIKGKKNIFESFVDYVAVEQLDGDNKYDAGEHGLQEAEKGVKFLTLPPVLHLQLMRFMYDPQTDQNIKINDRFEFPEQLPLDEFLQKTDPKDPANYILHAVLVHSGDNHGGHYVVYLNPKGDGKWCKFDDDVVSRCTKEEAIEHNYGGHDDDLSVRHCTNAYMLVYIRESKLSEVLQAVTDHDIPQQLVERLQEEKRIEAQKRKERQE
- ubiquitin-AMC cleavage with 1 µM hD1 (hD1 cyclic peptide): the hD1 peptide had no effect on USP7CD or CYLD activity

B5: USP30 (protein)
chain: TERKKRRKGLVPGLVNLGNTCFMNSLLQGLSACPAFIRWLEEFTSQYSRDQKEPPSHQYLSLTLLHLLKALSCQEVTDDEVLDASCLLDVLRMYRWQISSFEEQDAHELFHVITSSLEDERDRQPRVTHLFDVHSLEQQSEITPKQITCRTRGSPHPTSNHWKSQHPFHGRLTSNMVCKHCEHQSPVRFDTFDSLSLSIPAATWGHPLTLDHCLHHFISSESVRDVVCDNCTKIEAKGTLNGEKVEHQRTTFVKQLKLGKLPQCLCIHLQRLSWSSHGTPLKRHEHVQFNEFLMMDIYKYHLLGHKPSQHNPKLNKNPGPTLELQDGPGAPTPVLNQPGAPKTQIFMNGACSPSLLPTLSAPMPFPLPVVPDYSSSTYLFRLMAVVVHHGDMHSGHFVTYRRSPPSARNPLSTSNQWLWVSDDTVRKASLQEVLSSSAYLLFYERVLSRMQHQSQECKSEE
- ubiquitin-AMC cleavage with 1 µM hD1 (hD1 cyclic peptide): only a very modest (˜15%) effect on USP30

B6: CYLD (protein)
chain: MSSGLWSQEKVTSPYWEERIFYLLLQECSVTDKQTQKLLKVPKGSIGQYIQDRSVGHSRIPSAKGKKNQIGLKILEQPHAVLFVDEKDVVEINEKFTELLLAITNCEERFSLFKNRNRLSKGLQIDVGCPVKVQLRSGEEKFPGVVRFRGPLLAERTVSGIFFGVELLEEGRGQGFTDGVYQGKQLFQCDEDCGVFVALDKLELIEDDDTALESDYAGPGDTMQVELPPLEINSRVSLKVGETIESGTVIFCDVLPGKESLGYFVGVDMDNPIGNWDGRFDGVQLCSFACVESTILLHINDIIPALSESVTQERRPPKLAFMSRGVGDKGSSSHNKPKATGSTSDPGNRNRSELFYTLNGSSVDSQPQSKSKNTWYIDEVAEDPAKSLTEISTDFDRSSPPLQPPPVNSLTTENRFHSLPFSLTKMPNTNGSIGHSPLSLSAQSVMEELNTAPVQESPPLAMPPGNSHGLEVGSLAEVKENPPFYGVIRWIGQPPGLNEVLAGLELEDECAGCTDGTFRGTRYFTCALKKALFVKLKSCRPDSRFASLQPVSNQIERCNSLAFGGYLSEVVEENTPPKMEKEGLEIMIGKKKGIQGHYNSCYLDSTLFCLFAFSSVLDTVLLRPKEKNDVEYYSETQELLRTEIVNPLRIYGYVCATKIMKLRKILEKVEAASGFTSEEKDPEEFLNILFHHILRVEPLLKIRSAGQKVQDCYFYQIFMEKNEKVGVPTIQQLLEWSFINSNLKFAEAPSCLIIQMPRFGKDFKLFKKIFPSLELNITDLLEDTPRQCRICGGLAMYECRECYDDPDISAGKIKQFCKTCNTQVHLHPKRLNHKYNPVSLPKDLPDWDWRHGCIPCQNMELFAVLCIETSHYVAFVKYGKDDSAWLFFDSMADRDGGQNGFNIPQVTPCPEVGEYLKMSLEDLHSLDSRRIQGCARRLLCDAYMCMYQSPTMSLYK
- ubiquitin-AMC cleavage with 1 µM hD1 (hD1 cyclic peptide): the hD1 peptide had no effect on USP7CD or CYLD activity
